Experimental data from the domain aggregation screens of Martell et al. (2025).

Assay: soluble fraction after stress (log2 fold change); higher = more stays soluble; pooled small domains, quantitative proteomics
Details: stress: 50 degC
Procedure, shortened: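 After stress at 50°C, the amount of each protein still soluble was measured. This was done on pooled custom libraries of small protein domains, using high-throughput quantitative proteomics. The figure given is a base-two log fold change and stands for aggregation propensity, with higher values meaning more protein stays in solution.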

Sequence: HMTGQEGLIGAHGVALTRLSNEEGEVKVQGEIWQARSDQEVAKGASIEVVHVDGLVLTVRPQH
- soluble fraction (log2): -0.0984

Sequence: HMTGQLTEEELKQRQERAMSNPEIQGILSDPVMRQVLQDMSTDPKAAAEHQRNPTIMAKIQKLINAGIVQV
- soluble fraction (log2): 0.11

Sequence: HMTGSETLQDIFAHLEAGTVRTALSLIPRLDAVEYEQNRQRIAELAGVRPSALDDLRKQAKREEN
- soluble fraction (log2): 0.519

Sequence: HMTGTKEQQVVMLNNILQKQLQAFELQGKRDYPMVTMKNMYNTLSKMVENAGLQTVESYFVDPIKGQQM
- soluble fraction (log2): -0.0334

Sequence: HMTGVEAIERYLASGVIPGVGPVLAKRLVERFGARTLEVIEDSPRRLTQVPGIGRQKARQIHQALKAQRE
- soluble fraction (log2): -0.25

Sequence: HMTGYVMIRVDGLSLEKFLNMAAEAGVRVSDVRRASYTVLYAVVSPRDLKKLQSVAPEKYTVTVR
- soluble fraction (log2): -0.664

Sequence: HMTHANAALTPRHRLKVARLVVDEGWPVSEVAARFQVSWPTVKRWADRYRAGQSMQDRSSRP
- soluble fraction (log2): -1.13

Sequence: HMTHEAEDLNALRMMVRDPIFSSDEPDLQQLRGAVAHAPQFVDRFKELYNDYQRLAEFVQNSL
- soluble fraction (log2): -0.769

Sequence: HMTHFRTDERRREILSTIEADGRVSVSEIASRFDVSPVTIRSDLNYLAIQGKLKRVRGGAVLLDH
- soluble fraction (log2): -0.76

Sequence: HMTIDNPESQKIMDMVPFFFQSRNYDEAIEALTYVIEQEPQFSEAYNKRATFYFMMGDLENSMKDIEITLA
- soluble fraction (log2): -0.401

Sequence: HMTIGIGKSLDFNTSGEKAYRIYNFKGAYVGTFKASDMTSLKNEVQKSNVKAGAYMVRSLDGHVNRLIEIK
- soluble fraction (log2): -0.681

Sequence: HMTIGKIVNIIEGSYANVRSAPDQNSEPIGRAYPGDAFLVDPLGSSGDWVKVTYEGQSGFIFQAYISV
- soluble fraction (log2): -1.29

Sequence: HMTIGKRIKRRRIELKMSIDSLARTIGKDRSTVYRYESGAIDKVSSDVLAKLATALNTTPAYLIGL
- soluble fraction (log2): -3.27

Sequence: HMTIKNHIDEILKKEPFILENIKNGLINISALARQIEPQLSRKVGKKLNVNAIIMTIKRMEIDQLNK
- soluble fraction (log2): -0.989

Sequence: HMTIPNGTVVNGTVLEAREAGAYLVRVAGQTLTAQANLPLLVGQHFRAVWDSSGDIPVLRLSDAEQALLGK
- soluble fraction (log2): 0.119

Sequence: HMTIPRLPFAFAKRFGIVLDNRPSGFVAAHKEGLLPHVLLEVQRFLGDAYTLEVVSDDDFERILGQVYQT
- soluble fraction (log2): -3.27

Sequence: HMTIPSYAEAVRYVRRQPRINTSTLADGLGIRWSLALDYLERMARSGVVGAIEDDGWWPVAR
- soluble fraction (log2): -0.71

Sequence: HMTIRIPEEEYLTRAKRAAQMTAERGLDALFLFGSEGDFQNVRYFTSVTPIWERLGVVITASGKAAMLTGP
- soluble fraction (log2): -0.0521

Sequence: HMTIRPEDVELVPAEDGYMQGDVVSNIFKGVHYELEVKANGYDWMVHTTKYVEVGSHVGIKVIPFNIQV
- soluble fraction (log2): -0.0208

Sequence: HMTISPYTKDDFLKGTKPFEDVYAHKADPFVHDRALEQMTIWAKSVGVNGFKKLYKAYIDSLRIKNKEI
- soluble fraction (log2): 0.0524

Sequence: HMTKAGVDAWTRGDYAAAVKEWQAQAAKGDADAIFNLGQAFKLGKGVPQDLIKAEQLFGQAAA
- soluble fraction (log2): 0.154

Sequence: HMTKDEIIIQSIIDAAKKLMQQYGLNKTTMEDIAKEAGKGKSTLYHYFKSKEEIFDQVINQEID
- soluble fraction (log2): -0.0722

Sequence: HMTKEEFLDEIKKELGFMPYEEVIKAEKYFESYFNGSEADEKVIERFGSPKYAAQNYYRTHVAN
- soluble fraction (log2): -0.0965

Sequence: HMTKEEFLYELKKELSALDSAEATAYNLRYYSDYIDAEIAKGRSEQEVLDELGNPRWLVNSIKESG
- soluble fraction (log2): 0.122

Sequence: HMTKGDRIKARREELGLTQTDLAEAISSTKQNIYKYENNIISNIPSDKVEAIAEVLKISPAYLMGWGDE
- soluble fraction (log2): 0.0302

Sequence: HMTKGFSIQDISLSKSTMTFLQQNKITDLASLLSMSKSQIEGMKGFKPKMIQEIEKNLDKVGLVLAQD
- soluble fraction (log2): 0.176

Sequence: HMTKGVKVEIGTEEASVDLYVVMEYGTPIQKAAYDAQESVRKAIETMTNLHVVRVDVHVQGVSF
- soluble fraction (log2): -0.134

Sequence: HMTKGVWHTVKKGENLYRISLYYEVPQQEIKKANKIETENIVVGQKLFIPNTTKKSPIFALTP
- soluble fraction (log2): -1.49

Sequence: HMTKIDYSINQIYSLRNIENITIVLKDKRSFTGKILKIYWQNGSKIILFTTETRNYKFKEYEISEIYKS
- soluble fraction (log2): -0.268

Sequence: HMTKIEYTEQEFNDFIQAYKNNRKMFPEDYIVKTQVVFINKGFSKSQADMIIAQIETRLRLQGE
- soluble fraction (log2): -0.421

Sequence: HMTKIKAIFFDIDGTIRSFKTKTIPENTANTLKKLKEQGIKIFIATGRAPFHTTFLNDLLDFKFDGYITIN
- soluble fraction (log2): -0.282

Sequence: HMTKKSLFNQYLDDQKRLDIVTLQKAELVDLHKLADELNIDQYNQLKKNELIFKILQSNPSE
- soluble fraction (log2): -0.135

Sequence: HMTKNEFLQGLKEELEGRVTHSAIQENIRYYDDYISQEVLKGSTEEEVTESLGGPRIIARTIVDAAYD
- soluble fraction (log2): -0.0458

Sequence: HMTKPLHELLSQREFQVFTQLAAGRSVGEIAQQLSLSSNTVSTYRARILEKTGTRNDVELALYAIRR
- soluble fraction (log2): -1.52

Sequence: HMTKPTLMEVEIKGAIQNPGVYTLKRNSSISKLIKMSGPLLENADTSSISFTHILQDKDVVVIPEIK
- soluble fraction (log2): -0.262

Sequence: HMTKQEYLNQLKNELVKQGVADAEDVVTEYEQHFAFKLADGFGEEEIAKKLGDPAAIASQFVG
- soluble fraction (log2): 0.293

Sequence: HMTKQMELLAQGAAKLSVDLNQRQLDQLQTYYRELVDWNQRMNLTAITQYEEVQVKHFLDSL
- soluble fraction (log2): -0.0986

Sequence: HMTKRKNTEFRQQQIIEAAAKLIFKYGSEHLTVKRIAAQVGISEAAIYRHFTSKKSILSFLLSHIEE
- soluble fraction (log2): -0.423

Sequence: HMTKRTVKSVARKIADFNRERHRMPTYEEMLTLLAVRSKSVVHFWMNKLLQEGILEKDESGHLTFV
- soluble fraction (log2): -0.124

Sequence: HMTKSSAYLSAEKLINKKQYSDAIVKLNDALVTDSKNADIYNYLGFSHRKLGKMEDAAFFYNKALE
- soluble fraction (log2): 0.219

Sequence: HMTLDDSFYQKADEIIANHTKEERSLIPIIQDIQAEYRYLPPELLTYVAKEIGITDARAYSVASFYENFS
- soluble fraction (log2): -0.446

Sequence: HMTLDEDYFYYTLKAKEGYYRLYKKLGVDRKIIDSLNPNLKEMGLQVGMVIRVPKSQTSDLSVKNSLLVE
- soluble fraction (log2): -1.4

Sequence: HMTLHDLFPQAVEFVSEKEMISTAELQRKLMISYNSAAKIIDQLLHVDFIQKSESAGKYSVLIK
- soluble fraction (log2): -2.31

Sequence: HMTLNTQLFTWKKGVRVGEDDQGNIYYRTKDDKRRWVIFTGETEATKVSPDWHGWLHRTWATPPNK
- soluble fraction (log2): -2.39

Sequence: HMTLPGQDFIRASQLKELIAKYDKQYYEEGVSDISDAEYDRLYEEYLEFENKYPELKDMADAPTKRV
- soluble fraction (log2): 0.332

Sequence: HMTLREQISALIKQGKLTQAKLARETGVNGGALSAWINGKYTGNVETVEEPIKHWMALNERK
- soluble fraction (log2): 0.373

Sequence: HMTLSVRQRMSQIINKIDVSNFTDFTKLFDINEGRLGVAVTFLAILELLKDTMIDVIQNEEFAPLHIKVSS
- soluble fraction (log2): -0.177

Sequence: HMTMIIQLDKNITQEQRQFLVEELNRLSISPNFVSTQFTNYIVGIPKKEFDIRLIGNLPGIADIHFV
- soluble fraction (log2): -0.183

Sequence: HMTMKVTADILNMRSEASTNSDIVTKLKKDDELKVIEETKDDDGVTWVKVDFNGQVGFVSKEFLG
- soluble fraction (log2): 0.284

Sequence: HMTMLLEYNVSRSSKWMNKTIMDAEIPDDILIVMIKRNGQVIVPKGSTEILENDILVLSGNNLNEVALG
- soluble fraction (log2): -2.33

Sequence: HMTMNYYDILSIKRDATLEEIQKAYKEKSFQFHPDFNKGISDDSMFRIIKEAYETLSDTEKRNQYDASLNK
- soluble fraction (log2): 0.232

Sequence: HMTMQTAEQESRLEQKLIDLSVGIDRFEGYSRPHGQLIASIADRIGTRLGMAAHDRFYMQQAAL
- soluble fraction (log2): 0.107

Sequence: HMTNADRFIGEEAMVIKKIDDINNDGQVKIAGQVWSAVSEDKSPLEEGTIVKVIAIRGVKLVVEPVS
- soluble fraction (log2): 0.0662

Sequence: HMTNALDMMKTMDSDAYTKYQKISKESSNEDRQLNELKYITNWYAGAVKKNPSMVDDYEKQKEADS
- soluble fraction (log2): 0.159

Sequence: HMTNELTEIFNSIRLTKKQKELLQSNYLSLRETYFLQGKTAFNLKFKNIAGLGKSTKKVLLEFFEESIE
- soluble fraction (log2): -1.83

Sequence: HMTNIDIEKSIKNTITANYDDVLNYHNEDDNKTFASGDSRYSFDYDEKTKTLIVFTNSKVDAVFVDGIKKK
- soluble fraction (log2): -0.0966

Sequence: HMTNISDYILEEYYKNVYPNDLNTKRIVIPNKYEEYAGKYTYITIARMVTYEHDAKKALKVLHQQAT
- soluble fraction (log2): -0.287

Sequence: HMTNKYSSLVIGTVKTIMEEDQYKNLMGPPLKKEIIKQVDKFTNALPIEFDQNDKDFYVKKILINL
- soluble fraction (log2): -0.304

Sequence: HMTNLKALRESKGVSQQTVADYLGITRQAYGNYETGKRQADYAALLRLAAFFGVSVDALLQP
- soluble fraction (log2): -0.299

Sequence: HMTNNDIIRRVRYLFNFSDKQVIELFKLANETVSIEHVSGWLKKEEDPTLIEISDRDLAVFLNGLII
- soluble fraction (log2): 0.237

Sequence: HMTNQEFNEVFKLLLAAYPNTKDKESVATIYFLTIANELTKKEFAEAVVKILKTRKSGFIPQPAEILEVAK
- soluble fraction (log2): -0.67

Sequence: HMTNSAGIERFLASGAIDGVGPAMARRIVEHFGTEALRIIESVPHRLREISGIGPKTAEKIASSYMRQ
- soluble fraction (log2): -0.689

Sequence: HMTNTDALINRAAKVVEEINPDKNTGRVSIDGDLWRAKSSSGELIEQNKQVIVISIESTIVTVKI
- soluble fraction (log2): -0.343

Sequence: HMTNTWNNIVERNDLFFKKFTNTPFNGKIETYWPNGNLKETGIITDGKKDNLWEYYYENGNPKEVEF
- soluble fraction (log2): -0.397

Sequence: HMTNVFSIIGKKALVIKDIDPIHSSGQIKLNGEVWSAETENDEIIKEGSEVEVLKINGVKAIVKLV
- soluble fraction (log2): -0.107

Sequence: HMTNVIPKAMAPFNGSTIIADGIKNIKDHIDNLYITVGYKGATLSEHVINKGVSAVFNTTGKGNAWWVYN
- soluble fraction (log2): 0.0606

Sequence: HMTNVLSEQESKLLERMNKAGLNAEITVKKAAQILNLSESAARNVLNRLVGKGYLTVDTSRLPFLFQR
- soluble fraction (log2): -0.0793

Sequence: HMTNVVSKNKAKEIAMNIINDTVLQGQTAATFKEIVKANGVYVVKIEIQGQEYTSYITKDGKIVFPYGVEV
- soluble fraction (log2): -0.451

Sequence: HMTNYSFIVNENFNNKRIDQVVANHYPKISRTKVNKIIKNNLLKLNGSTFNDPSAKVKLGDQIEFENL
- soluble fraction (log2): 0.389

Sequence: HMTPAKQVSAKAERWIDQLGSSDWEKREEAAAELKKLGGAAKSALEKALKNADPEVASKAEELLEALES
- soluble fraction (log2): 0.0311

Sequence: HMTPATVVIPKVAGQTVAEAKETLKNANFEIGEEKDESSDTVEEGRVIRTDPESGTNRKEGTKINLIVSS
- soluble fraction (log2): -0.0325

Sequence: HMTPFVINVDRHGAVIINEKTVDIDEAVVLARQERSQGKSILLAGDKKAPYEAIIRVLDALKQAG
- soluble fraction (log2): -0.185

Sequence: HMTPNATWQDDAQNLLRDLIQHQPVLVQISAAKRLRDQAEQISRITGGETVTREHVEAAGHALGMGVT
- soluble fraction (log2): 0.0847

Sequence: HMTPNRDDEHLQSLRDYYASNRRIPSLQRIAALLGFSSRSAAVKLMGRLADEGFVERTVDDDAWIPGSRFF
- soluble fraction (log2): -0.808

Sequence: HMTPQDYEYLRKLLKDQSGLDLSVDKQYLLESRLVPLSRKAGLAGIPELVQKMKAGSASLTAQVVEAMTT
- soluble fraction (log2): 0.00429

Sequence: HMTPVFGEEETVLQAAVRGIISDTDQWTMEAEAKSMLNQLGFSDYEEKMAHMSGGQKKRVALVNALLTP
- soluble fraction (log2): 0.0128
